Experimental data from article doi:10.1101/2023.03.09.531992.

Molecular target: full-length, extra-membrane clientized (Thr1273Glu) S tail, biotinylated (BLI) (SARS-CoV-2)
Experiment: BLI

B1: S. pombe αWD40 domain (N-terminal WD40 domain of α-COPI), wild type (domain or fragment)
chain: MEMLTKFESRSSRAKGVAFHPTQPWILTSLHNGRIQLWDYRMGTLLDRFDGHDGPVRGIAFHPTQPLFVSGGDDYKVNVWNYKSRKLLFSLCGHMDYVRVCTFHHEYPWILSCSDDQTIRIWNWQSRNCIAILTGHSHYVMCAAFHPSEDLIVSASLDQTVRVWDISGLRMKNAAPVSMSLEDQLAQAHNSISNDLFGSTDAIVKFVLEGHDRGVNWCAFHPTLPLILSAGDDRLVKLWRMTASKAWEVDTCRGHFNNVSCCLFHPHQELILSASEDKTIRVWDLNRRTAVQTFRRDNDRFWFITVHPKLNLFAAAHDSGVMVFKLE
Q: B1 was tested. Which fold slower binding rate than the wild-type S tail did it give?
A: 2.4 fold

Q: And the fold tighter binding than the wild-type S tail?
A: 11 fold
